Details of series [1]: method as in PMID 21968061. To be noted: DPPH radical scavenging (antioxidant activity); cited from earlier work. A general note: DPPH is a stable violet radical that fades when it is reduced.
Substrate in series [2]: COc1ccc(-c2oc3c(CCC(C)(C)O)c(O)cc(O)c3c(=O)c2O)cc1
Description: Glucuronidation by expressed UGT1A8. It counts as in vitro ADME, human. To be noted: pH 7.4. How it is done:
(§1) The reaction was terminated by adding ice-cold acetonitrile. […] All experiments were performed in triplicate.
(§2) The parameter were as follow. V is the formation rate of the product. Vmax is the maximal velocity. […] Ksi is the substrate inhibition constant. […] (1) V=Vmax ×[S]/Km+[S] (2) V=Vmax ×[S]/Km + [S](1+[S]/Ksi)

Substrate in series [3]: COc1ccc(-c2oc3c(CCC(C)(C)O)c(O)cc(O)c3c(=O)c2O)cc1
Description: Glucuronidation by expressed UGT1A7. Conditions: pH 7.4. The series is classed as in vitro ADME, human. How it is done:
as §1, §2

Substrate in series [4]: COc1ccc(-c2oc3c(CCC(C)(C)O)c(O)cc(O)c3c(=O)c2O)cc1
Description: not read. Conditions: pH 7.4.
Description: Briefly, the incubation mixture mainly contained 50 mM Tris-hydrochloric acid buffer (pH 7.4), 0.88 mM MgCl2, 22 µg/mL alamethicin, 4.4 mM saccharolactone and 3.5 mM UDPGA [32]. The reaction was terminated by adding ice-cold acetonitrile. […] The supernatant was subjected to UPLC/Q-TOF-MS (Waters Corporation, Manchester, UK) analysis. […] All experiments were performed in triplicate. Preliminary experiments were performed to ensure that the rates of glucuronidation were determined under linear conditions with respect to the incubation time and protein concentration.
The detection wavelength was set at 270 nm, and the injection volume was 8 µL.
Appropriate models were selected by visual inspection of the Eadie–Hofstee plot [34]. Model fitting and parameter estimation were performed by GraphPad Prism V5 software (GraphPad Software, Inc., San Diego, CA, USA).
V is the formation rate of the product. Vmax is the maximal velocity. Km is the Michaelis constant, and [S] is the substrate. Ksi is the substrate inhibition constant. The intrinsic clearance (CLint) was derived by Vmax/Km for the Michaelis–Menten and substrate inhibition models [12]. (1) V=Vmax ×[S]/Km+[S] (2) V=Vmax ×[S]/Km + [S](1+[S]/Ksi)
(§3) The contribution of individual expressed UGT enzymes to wushanicaritin glucuronidation in HLM was evaluated by the relative activity factor (RAF) approach as described in previous studies [2, 12]. The relative activity factor was defined as the activity ratio of HLM to an expressed UGT enzyme (Supersome) toward a probe substrate for this enzyme using Equation (3). The relative amount of wushanicaritin glucuronidation in HLM attributed to an expressed UGT enzyme was estimated by multiplying the glucuronidation activity (i.e., the intrinsic clearance) derived with this enzyme by the corresponding RAF. […] The contributions of individual UGT enzyme were calculated according to Equation (4). (3) RAF=CLint{probe,pHLM}/CLint{probe,Supersome} (4) Contribution of UGTs=CLint(wushanica ritin,UGTs)/CLint(wushanica ritin,pHLM)×RAF

Substrate in series [5]: COc1ccc(-c2oc3c(CCC(C)(C)O)c(O)cc(O)c3c(=O)c2O)cc1
Description: Glucuronidation by expressed UGT1A3. The series is classed as in vitro ADME, human. Conditions: pH 7.4.
Description: Wushanicaritin was incubated with HLM, HIM and expressed UGTs enzymes to determine the rates of glucuronidation as published previously [12, 23, 31]. Briefly, the incubation mixture mainly contained 50 mM Tris-hydrochloric acid buffer (pH 7.4), 0.88 mM MgCl2, 22 µg/mL alamethicin, 4.4 mM saccharolactone and 3.5 mM UDPGA [32]. The reaction was terminated by adding ice-cold acetonitrile. The samples were vortexed and centrifuged at 13,800× g for 10 min. The supernatant was subjected to UPLC/Q-TOF-MS (Waters Corporation, Manchester, UK) analysis. […] Similarly, wushanicaritin was incubated with DLM, RLM, MkLM, RaLM and GpLM in the same way as for HLM. All experiments were performed in triplicate. Preliminary experiments were performed to ensure that the rates of glucuronidation were determined under linear conditions with respect to the incubation time and protein concentration.
Serial concentrations of wushanicaritin (0.156–20 µM) were incubated with HLM, HIM and expressed UGTs enzymes to determine wushanicaritin glucuronidation rates. […] Appropriate models were selected by visual inspection of the Eadie–Hofstee plot [34]. Model fitting and parameter estimation were performed by GraphPad Prism V5 software (GraphPad Software, Inc., San Diego, CA, USA).
The parameter were as follow. V is the formation rate of the product. Vmax is the maximal velocity. Km is the Michaelis constant, and [S] is the substrate. Ksi is the substrate inhibition constant. The intrinsic clearance (CLint) was derived by Vmax/Km for the Michaelis–Menten and substrate inhibition models [12]. (1) V=Vmax ×[S]/Km+[S] (2) V=Vmax ×[S]/Km + [S](1+[S]/Ksi)
as §3

Substrate in series [6]: C[C@H](CCC(=O)O)[C@H]1CC[C@H]2[C@@H]3[C@H](O)C[C@@H]4C[C@H](O)CC[C@]4(C)[C@H]3CC[C@]12C
Description: not read. To be noted: other: probe substrate glucuronidation; UGT1A3; pH 7.4.

Setting [7] is: other: formation of G1 (3-O-glucuronide).
[8] abbreviates: other: formation of G2 (7-O-glucuronide).
[9] abbreviates: other: formation of G1 (3-O-glucuronide), UGT1A1.
[10] abbreviates: other: formation of G2 (7-O-glucuronide), UGT1A1.
Setting [11] is: other: formation of G1 (3-O-glucuronide), UGT2B7.
[12] abbreviates: other: formation of G2 (7-O-glucuronide), UGT2B7.

Usually IC50 stands for the concentration at which inhibition is half-maximal. In the case of `O=C1O[C@H]([C@@H](O)CO)C(O)=C1O` [vitamin C, reference compound], the half-inhibitory concentration (IC50) in series [1] was 32 µM.

B1: expressed human UGT1A8 (Homo sapiens) (protein)
chain: GKLLVVPMDGSHWFTMQSVVEKLILRGHEVVVVMPEVSWQLGKSLNCTVKTYSTSYTLEDLDREFMDFADAQWKAQVRSLFSLFLSSSNGFFNLFFSHCRSLFNDRKLVEYLKESSFDAVFLDPFDACGLIVAKYFSLPSVVFARGIACHYLEEGAQCPAPLSYVPRILLGFSDAMTFKERVRNHIMHLEEHLFCQYFSKNALEIASEILQTPVTAYDLYSHTSIWLLRTDFVLDYPKPVMPNMIFIGGINCHQGKPLPMEFEAYINASGEHGIVVFSLGSMVSEIPEKKAMAIADALGKIPQTVLWRYTGTRPSNLANNTILVKWLPQNDLLGHPMTRAFITHAGSHGVYESICNGVPMVMMPLFGDQMDNAKRMETKGAGVTLNVLEMTSEDLENALKAVINDKSYKENIMRLSSLHKDRPVEPLDLAVFWVEFVMRHKGAPHLRPAAHDLTWYQYHSLDVIGFLLAVVLTVAFITFKCCAYGYRKCLGKKGRVKKAHKSKTH
notes: purchased Corning Biosciences
By Vmax is commonly meant the rate approached at saturating substrate. As to B1, in series [2] (setting [7]), the K0.5 came to 0.38 ± 0.03 µM, the Vmax is 2e-05 µmol/min/mg and the Vmax/Km was 50 µL/min/mg. For the same molecule, in series [2] (setting [8]), the K0.5 came out at 0.58 ± 0.07 µM, the Vmax was found to be 7e-05 µmol/min/mg and the Vmax/Km worked out at 120 µL/min/mg.

B2: expressed human UGT1A7 (Homo sapiens) (protein)
chain: GKLLVVPMDGSHWFTMQSVVEKLILRGHEVVVVMPEVSWQLGRSLNCTVKTYSTSYTLEDQDREFMVFADARWTAPLRSAFSLLTSSSNGIFDLFFSNCRSLFNDRKLVEYLKESCFDAVFLDPFDACGLIVAKYFSLPSVVFARGIFCHYLEEGAQCPAPLSYVPRLLLGFSDAMTFKERVWNHIMHLEEHLFCPYFFKNVLEIASEILQTPVTAYDLYSHTSIWLLRTDFVLEYPKPVMPNMIFIGGINCHQGKPVPMEFEAYINASGEHGIVVFSLGSMVSEIPEKKAMAIADALGKIPQTVLWRYTGTRPSNLANNTILVKWLPQNDLLGHPMTRAFITHAGSHGVYESICNGVPMVMMPLFGDQMDNAKRMETKGAGVTLNVLEMTSEDLENALKAVINDKSYKENIMRLSSLHKDRPVEPLDLAVFWVEFVMRHKGAPHLRPAAHDLTWYQYHSLDVIGFLLAVVLTVAFITFKCCAYGYRKCLGKKGRVKKAHKSKTH
notes: purchased Corning Biosciences
With B2, in series [3] (setting [7]), the K0.5 was 0.47 ± 0.03 µM, the Vmax was 0.00017 µmol/min/mg and the Vmax/Km stood at 360 µL/min/mg. Also, in series [3] (setting [8]), the K0.5 came to 0.61 ± 0.08 µM, the Vmax was found to be 0.00023 µmol/min/mg and the Vmax/Km was 380 µL/min/mg.

B3: expressed human UGT1A1 (Homo sapiens) (protein)
chain: HAGKILLIPVDGSHWLSMLGAIQQLQQRGHEIVVLAPDASLYIRDGAFYTLKTYPVPFQREDVKESFVSLGHNVFENDSFLQRVIKTYKKIKKDSAMLLSGCSHLLHNKELMASLAESSFDVMLTDPFLPCSPIVAQYLSLPTVFFLHALPCSLEFEATQCPNPFSYVPRPLSSHSDHMTFLQRVKNMLIAFSQNFLCDVVYSPYATLASEFLQREVTVQDLLSSASVWLFRSDFVKDYPRPIMPNMVFVGGINCLHQNPLSQEFEAYINASGEHGIVVFSLGSMVSEIPEKKAMAIADALGKIPQTVLWRYTGTRPSNLANNTILVKWLPQNDLLGHPMTRAFITHAGSHGVYESICNGVPMVMMPLFGDQMDNAKRMETKGAGVTLNVLEMTSEDLENALKAVINDKSYKENIMRLSSLHKDRPVEPLDLAVFWVEFVMRHKGAPHLRPAAHDLTWYQYHSLDVIGFLLAVVLTVAFITFKCCAYGYRKCLGKKGRVKKAHKSKTH
As to B3, in “not read [4]” (setting [9]), the K0.5 amounted to 0.98 ± 0.20 µM, the Vmax is 0.00113 µmol/min/mg and the Vmax/Km was found to be 1160 µL/min/mg. For the same molecule, in the series “not read [4]” (setting [10]), the K0.5 is 0.68 ± 0.08 µM, the Vmax is 0.00011 µmol/min/mg and the Vmax/Km was 160 µL/min/mg.

B4: expressed human UGT1A3 (Homo sapiens) (protein)
chain: GKVLVVPIDGSHWLSMREVLRELHARGHQAVVLTPEVNMHIKEENFFTLTTYAISWTQDEFDRHVLGHTQLYFETEHFLKKFFRSMAMLNNMSLVYHRSCVELLHNEALIRHLNATSFDVVLTDPVNLCAAVLAKYLSIPTVFFLRNIPCDLDFKGTQCPNPSSYIPRLLTTNSDHMTFMQRVKNMLYPLALSYICHAFSAPYASLASELFQREVSVVDILSHASVWLFRGDFVMDYPRPIMPNMVFIGGINCANRKPLSQEFEAYINASGEHGIVVFSLGSMVSEIPEKKAMAIADALGKIPQTVLWRYTGTRPSNLANNTILVKWLPQNDLLGHPMTRAFITHAGSHGVYESICNGVPMVMMPLFGDQMDNAKRMETKGAGVTLNVLEMTSEDLENALKAVINDKSYKENIMRLSSLHKDRPVEPLDLAVFWVEFVMRHKGAPHLRPAAHDLTWYQYHSLDVIGFLLAVVLTVAFITFKCCAYGYRKCLGKKGRVKKAHKSKTH
notes: purchased Corning Biosciences
Broadly, the Km is the substrate concentration at which the rate is half of its maximum. For the molecule B4, in series [5] (setting [7]), the K0.5 was found to be 0.45 ± 0.04 µM, the Vmax turned out to be 0.00017 µmol/min/mg and the Vmax/Km is 360 µL/min/mg. In series [5] (setting [8]), the K0.5 turned out to be 0.61 ± 0.08 µM, the Vmax was 0.00023 µmol/min/mg and the Vmax/Km turned out to be 380 µL/min/mg. Moreover, in “not read [6]”, the Km was found to be 10.90 ± 0.74 µM, the Vmax is 0.0002 µmol/min/mg and the Vmax/Km was determined as 18.5 µL/min/mg.

B5: expressed human UGT2B7 (Homo sapiens) (protein)
chain: GKVLVWAAEYSHWMNIKTILDELIQRGHEVTVLASSASILFDPNNSSALKIEIYPTSLTKTELENFIMQQIKRWSDLPKDTFWLYFSQVQEIMSIFGDITRKFCKDVVSNKKFMKKVQESRFDVIFADAIFPCSELLAELFNIPFVYSLSFSPGYTFEKHSGGFIFPPSYVPVVMSELTDQMTFMERVKNMIYVLYFDFWFEIFDMKKWDQFYSEVLGRPTTLSETMGKADVWLIRNSWNFQFPYPLLPNVDFVGGLHCKPAKPLPKEMEDFVQSSGENGVVVFSLGSMVSNMTEERANVIASALAQIPQKVLWRFDGNKPDTLGLNTRLYKWIPQNDLLGHPKTRAFITHGGANGIYEAIYHGIPMVGIPLFADQPDNIAHMKARGAAVRVDFNTMSSTDLLNALKRVINDPSYKENVMKLSRIQHDQPVKPLDRAVFWIEFVMRHKGAKHLRVAAHDLTWFQYHSLDVIGFLLVCVATVIFIVTKCCLFCFWKFARKAKKGKND
As to B5, in “not read [4]” (setting [11]), the K0.5 was 2.34 ± 0.19 µM, the Vmax amounted to 3e-05 µmol/min/mg and the Vmax/Km is 10 µL/min/mg. Also, in “not read [4]” (setting [12]), the K0.5 turned out to be 5.28 ± 0.98 µM, the Vmax stood at 1e-05 µmol/min/mg and the Vmax/Km was 2 µL/min/mg.

The record behind these values is paper PMC5618632, “In Vitro Glucuronidation of Wushanicaritin by Liver Microsomes, Intestine Microsomes and Expressed Human UDP-Glucuronosyltransferase Enzymes” (International Journal of Molecular Sciences, 2017).
